Data as given in the supplement of paper PMC5998384.

System: HeLa Kyoto
Assay: melting temperature (median over replicates), in situ; higher = more thermally stable
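Note: HeLa Kyoto cells synchronized by double thymidine or nocodazole block, proteins quantified by TMT10plex mass spectrometry, three independent biological replicates.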

Chain of MGST2 (chain, as listed by the source): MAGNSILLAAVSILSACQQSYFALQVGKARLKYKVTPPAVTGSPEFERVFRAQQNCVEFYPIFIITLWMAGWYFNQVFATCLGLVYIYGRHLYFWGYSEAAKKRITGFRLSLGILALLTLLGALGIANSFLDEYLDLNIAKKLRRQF

Substance	melting temperature (cell cycle stage: G1/S)	melting temperature (cell cycle stage: mitosis)
MGST2	54.3 °C	
MLLSIGMLMLSATQVYTILTVQLFAFLNLLPVEADILAYNFENASQTFDDLPARFGYRLPAEGLKGFLINSKPENACEPIVPPPVKDNSSGTFIVLIRRLDCNFDIKVLNAQRAGYKAAIVHNVDSDDLISMGSNDIEVLKKIDIPSVFIGESSANSLKDEFTYEKGGHLILVPEFSLPLEYYLIPFLIIVGICLILIVIFMITKFVQDRHRARRNRLRKDQLKKLPVHKFKKGDEYDVCAICLDEYEDGDKLRILPCSHAYHCKCVDPWLTKTKKTCPVCKQKVVPSQGDSDSDTDSSQEENEVTEHTPLLRPLASVSAQSFGALSESRSHQNMTESSDYEEDDNEDTDSSDAENEINEHDVVVQLQPNGERDYNIANTV [RNF13]	57.4 °C	64.3 °C
MRSGEELDGFEGEASSTSMISGASSPYQPTTEPVSQRRGLAGLRCDPDYLRGALGRLKVAQVILALIAFICIETIMACSPCEGLYFFEFVSCSAFVVTGVLLIMFSLNLHMRIPQINWNLTDLVNTGLSAFLFFIASIVLAALNHRAGAEIAAVIFGFLATAAYAVNTFLAVQKWRVSVRQQSTNDYIRARTESRDVDSRPEIQRLDTFSYSTNVTVRKKSPTNLLSLNHWQLA [CMTM4]	58.1 °C	
MSLCSPTHSAEMSLFLQGPEEMLPLSSEGSEMGSEKEQSPEPHLPEEGEGGKPWRVDDSEGSWIPPGEKEHGQESLSDELQETHPKKPWQKVTVRARELGDPIAHPRHEADEKPFICAQCGKTFNNTSNLRTHQRIHTGEKPYKCSECGKSFSRSSNRIRHERIHLEEKHYKCPKCQESFRRRSDLTTHQQDHLGKRPYRCDICGKSFSQSATLAVHHRTHLEPAPYICCECGKSFSNSSSFGVHHRTHTGERPYECTECGRTFSDISNFGAHQRTHRGEKPYRCTVCGKHFSRSSNLIRHQKTHLGEQAGKDSS [ZNF691]	54.9 °C	53.1 °C
MSLPPEKASELKQLIHQQLSKMDVHGRIREILAETIREELAPDQQHLSTEDLIKALRRRGIIDDVMKELNFVTDSVEQELPSSPKQPICFDRQSTLKKTNIDPTRRYLYLQVLGGKAFLEHLQEPEPLPGQVCSTFTLCLHYRNQRFRSKPVPCACEPDFHDGFLLEVHRESLGDGTRMADSTTMLSISDPIHMVLIKTDIFGETTLVASYFLEWRSVLGSENGVTSLTVELMGVGTESKVSVGILNIKLEMYPPLNQTLSQEVVNTQLALERQKTAEKERLFLVYAKQWWREYLQIRPSHNSRLVKIFAQDENGINRPVCSYVKPLRAGRLLDTPRQAARFVNVLGYERAPVIGGGGKQEQWCTLLAFLCRNKGDCEDHANLLCSLLLGYGLEAFVCVGTKAKGVPHAWVMTCGTDGAITFWESLTGHRYIHKPTNPDEPPVAEQPKPLYPYRTIGCVFNHQMFLGNCQPSDAVETCVFDLNDESKWKPMSEEAIKSVCAPGATTSLPPFPPLCASTIDASVTSNEIEMQLRLLVSEHRKDLGLTTVWEDQLSYLLSPALASYEFERTTSISAGNEEFQDAIRRAVPDGHTFKGFPIHFVYRNARRAFATCLRSPFCEEIICCRGDQVRLAVRVRVFTYPESACAVWIMFACKYRSVL [CEP76]	53.7 °C	
MSLRCGDAARTLGPRVFGRYFCSPVRPLSSLPDKKKELLQNGPDLQDFVSGDLADRSTWDEYKGNLKRQKGERLRLPPWLKTEIPMGKNYNKLKNTLRNLNLHTVCEEARCPNIGECWGGGEYATATATIMLMGDTCTRGCRFCSVKTARNPPPLDASEPYNTAKAIAEWGLDYVVLTSVDRDDMPDGGAEHIAKTVSYLKERNPKILVECLTPDFRGDLKAIEKVALSGLDVYAHNVETVPELQSKVRDPRANFDQSLRVLKHAKKVQPDVISKTSIMLGLGENDEQVYATMKALREADVDCLTLGQYMQPTRRHLKVEEYITPEKFKYWEKVGNELGFHYTASGPLVRSSYKAGEFFLKNLVAKRKTKDL [LIAS]	52.1 °C	53.4 °C
MSSHKGSVVAQGNGAPASNREADTVELAELGPLLEEKGKRVIANPPKAEEEQTCPVPQEEEEEVRVLTLPLQAHHAMEKMEEFVYKVWEGRWRVIPYDVLPDWLKDNDYLLHGHRPPMPSFRACFKSIFRIHTETGNIWTHLLGFVLFLFLGILTMLRPNMYFMAPLQEKVVFGMFFLGAVLCLSFSWLFHTVYCHSEKVSRTFSKLDYSGIALLIMGSFVPWLYYSFYCSPQPRLIYLSIVCVLGISAIIVAQWDRFATPKHRQTRAGVFLGLGLSGVVPTMHFTIAEGFVKATTVGQMGWFFLMAVMYITGAGLYAARIPERFFPGKFDIWFQSHQIFHVLVVAAAFVHFYGVSNLQEFRYGLEGGCTDDTLL [ADIPOR1]	55.6 °C	
MWTLGRRAVAGLLASPSPAQAQTLTRVPRPAELAPLCGRRGLRTDIDATCTPRRASSNQRGLNQIWNVKKQSVYLMNLRKSGTLGHPGSLDETTYERLAEETLDSLAEFFEDLADKPYTFEDYDVSFGSGVLTVKLGGDLGTYVINKQTPNKQIWLSSPSSGPKRYDWTGKNWVYSHDGVSLHELLAAELTKALKTKLDLSSLAYSGKDA [FXN]	53 °C	53.3 °C
RAPGEF6	47.3 °C	48.9 °C
